The Human Domainome abundance scans (Beltran et al. 2025)
± gives the uncertainty stated by the source.

B1: Gamma-crystallin C, residues 91 to 170; numbered along this chain, P07315 (parent)
chain: RLYEREDHKGLMMELSEDCPSIQDRFHLSEIRSLHVLEGCWVLYELPNYRGRQYLLRPQEYRRCQDWGAMDAKAGSLRRV

Variants of: B1
Assay: abundance fitness (aPCA) (normalised: wild type 0, dead -1); higher = more abundant; growth selection in yeast, the domain comes from the species named
Details: Homo sapiens

Variant | abundance fitness
R50A | -0.066 ± 0.082
R50F | -0.375 ± 0.22
R50W | -0.664 ± 0.14
R50M | -0.108 ± 0.17
R50Q | -0.012 ± 0.16
R50G | 0.04 ± 0.082
P20R | -0.44 ± 0.069
P20C | -0.253 ± 0.072
P20H | 0.061 ± 0.44
P20S | -0.292 ± 0.07
P20G | -0.394 ± 0.054
P20Q | -0.442 ± 0.19
P20E | -0.11 ± 0.12
D18C | -0.676 ± 0.25
D18F | -0.955 ± 0.24
D18W | -0.997 ± 0.23
D18S | -0.142 ± 0.055
G51P | -1.03 ± 0.49
A72T | -0.207 ± 0.071
A72R | -0.782 ± 0.093
A72V | -0.554 ± 0.15
A72F | -0.5 ± 0.12
A72W | -0.365 ± 0.12
R63Q | -0.089 ± 0.05

Variant | abundance fitness
R63H | -0.167 ± 0.12
W67K | -0.827 ± 0.36
W67L | -0.951 ± 0.14
L37S | -0.372 ± 0.079
L37I | -0.062 ± 0.13
D7H | -0.221 ± 0.27
D7F | -0.203 ± 0.17
D7T | -0.995 ± 0.26
D7M | -0.241 ± 0.076
Y54I | -0.395 ± 0.21
Y54R | -0.897 ± 0.11
Y54T | -0.717 ± 0.17
Y54S | -0.614 ± 0.077
Y54F | -0.118 ± 0.22
L34G | -0.725 ± 0.077
L34D | -0.579 ± 0.27
L34E | -0.537 ± 0.12
L77A | -0.524 ± 0.056
L77T | -0.626 ± 0.23
L77M | -0.035 ± 0.1
L77I | 0.011 ± 0.36
F26S | -0.69 ± 0.12
F26E | -0.923 ± 0.29
F26L | -0.343 ± 0.066

Variant | abundance fitness
M12A | -0.127 ± 0.05
M12F | -0.342 ± 0.088
M12T | -0.464 ± 0.15
M12H | -0.483 ± 0.12
M12I | -0.242 ± 0.11
M12S | -0.172 ± 0.068
M12D | -0.863 ± 0.17
M12W | -0.17 ± 0.1
R57A | 0.003 ± 0.078
R57I | -0.566 ± 0.43
R57T | 0.052 ± 0.091
R57Q | -0.045 ± 0.13
R57D | -0.174 ± 0.14
R57C | -0.215 ± 0.13
C19V | -0.43 ± 0.074
C19T | -0.535 ± 0.036
C19S | -0.92 ± 0.19
H35N | -0.09 ± 0.11
H35F | -0.325 ± 0.1
H35M | -0.222 ± 0.087
H35Y | -0.202 ± 0.14
H35S | -0.05 ± 0.056
L55D | -0.441 ± 0.21
L55V | -0.087 ± 0.066

Variant | abundance fitness
L55G | -0.082 ± 0.089
S16Y | -0.094 ± 0.14
S16I | -0.102 ± 0.14
S16K | -0.135 ± 0.13
S16L | -0.276 ± 0.063
S16N | -0.025 ± 0.15
C64W | -0.086 ± 0.17
C64H | 0.063 ± 0.1
C64F | -0.093 ± 0.14
C64Q | -0.795 ± 0.23
C64G | -0.597 ± 0.099
C64A | -0.144 ± 0.061
C64S | -0.285 ± 0.071
Y61S | -0.936 ± 0.12
Y61T | -0.529 ± 0.12
L2C | -0.777 ± 0.34
G68R | -0.764 ± 0.12
G68T | -1.01 ± 0.28
G68C | -0.696 ± 0.48
V36M | -0.742 ± 0.27
V36A | -0.783 ± 0.17
V36Y | -0.947 ± 0.5
V36C | -0.836 ± 0.17
V36G | -0.76 ± 0.095

Variant | abundance fitness
V36W | -0.788 ± 0.12
E45G | -0.492 ± 0.065
E45M | -0.792 ± 0.28
K73N | -0.026 ± 0.15
K73P | -0.628 ± 0.15
K73L | -0.185 ± 0.072
K73T | -0.124 ± 0.087
K73R | 0.017 ± 0.05
K73E | -0.495 ± 0.14
K73A | -0.069 ± 0.065
K73G | -0.304 ± 0.071
K73S | -0.145 ± 0.076
Q53H | -0.386 ± 0.34
Q53E | 0.087 ± 0.086
Q53M | -0.345 ± 0.17
Q53R | -0.092 ± 0.051
R52V | -0.137 ± 0.1
R52T | -0.058 ± 0.16
R52W | -0.523 ± 0.16
R52G | -0.402 ± 0.21
E14A | -0.15 ± 0.08
E14K | -0.095 ± 0.15
E14D | -0.485 ± 0.097
Q23A | -0.044 ± 0.041

Variant | abundance fitness
Q23H | -0.122 ± 0.13
Q23P | -0.127 ± 0.089
Q23L | -0.076 ± 0.044
Q23S | -0.145 ± 0.078
Q23G | -0.124 ± 0.045
Q23M | -0.033 ± 0.075
G39N | -0.65 ± 0.23
G39M | -0.93 ± 0.41
G39Y | -0.566 ± 0.43
G39F | -0.759 ± 0.082
G39W | -0.94 ± 0.25
G39C | -0.536 ± 0.088
R62D | -0.619 ± 0.21
R62Y | -0.252 ± 0.43
R62P | -0.196 ± 0.055
R62A | 0.07 ± 0.079
R62F | -0.086 ± 0.14
R62S | -0.069 ± 0.066
D66W | -0.639 ± 0.18
D66C | -0.485 ± 0.22
D66E | -0.083 ± 0.14
D66P | -0.879 ± 0.17
D66V | -0.749 ± 0.15
D66S | -0.316 ± 0.06

Variant | abundance fitness
Y3A | -0.771 ± 0.37
Y3H | -0.598 ± 0.24
A74E | -0.56 ± 0.13
A74V | 0.036 ± 0.067
A74T | -0.128 ± 0.045
R25K | -0.07 ± 0.063
R25G | -0.602 ± 0.069
R25S | -0.078 ± 0.072
R25I | -0.598 ± 0.3
L56R | -0.836 ± 0.1
L56W | -0.988 ± 0.18
L56T | -0.636 ± 0.18
L56A | -0.939 ± 0.21
L56E | -0.93 ± 0.41
L56Y | -0.926 ± 0.35
E17Y | -0.526 ± 0.19
E17R | -0.422 ± 0.062
E17G | -0.132 ± 0.051
E17F | -0.516 ± 0.11
E17T | -0.231 ± 0.078
E17A | -0.18 ± 0.074
I31C | -0.833 ± 0.28
I31D | -0.843 ± 0.21
